Assay results reported in US20060121032A1 (published 2006).

B1: alemtuzumab E258H (antibody)
chain 1: not shown
chain 2: not shown
B2: alemtuzumab E283H (antibody)
chain 1: not shown
chain 2: not shown
B3: alemtuzumab R255Y (antibody)
chain 1: not shown
chain 2: not shown
B4: alemtuzumab S304T (antibody)
chain 1: not shown
chain 2: not shown
B5: alemtuzumab V284E (antibody)
chain 1: not shown
chain 2: not shown
B6: alemtuzumab E272H (antibody)
chain 1: not shown
chain 2: not shown
B7: alemtuzumab E272P (antibody)
chain 1: not shown
chain 2: not shown
B8: alemtuzumab E283L (antibody)
chain 1: not shown
chain 2: not shown
B9: alemtuzumab S324G (antibody)
chain 1: not shown
chain 2: not shown
B10: alemtuzumab E258Y (antibody)
chain 1: not shown
chain 2: not shown
B11: alemtuzumab K246Y (antibody)
chain 1: not shown
chain 2: not shown
B12: alemtuzumab G236S (antibody)
chain 1: not shown
chain 2: not shown
B13: alemtuzumab H268D (antibody)
chain 1: not shown
chain 2: not shown
B14: alemtuzumab K246H (antibody)
chain 1: not shown
chain 2: not shown
B15: alemtuzumab S267E (antibody)
chain 1: not shown
chain 2: not shown

What follows are binders tested against extracellular region of human V158 FcγRIIIa with C-terminal 6×His-tag and GST-tag (human, UniProt P08637 17-208) (assay: SPR).
Sequence of extracellular region of human V158 FcγRIIIa with C-terminal 6×His-tag and GST-tag (P08637 17-208 F176V): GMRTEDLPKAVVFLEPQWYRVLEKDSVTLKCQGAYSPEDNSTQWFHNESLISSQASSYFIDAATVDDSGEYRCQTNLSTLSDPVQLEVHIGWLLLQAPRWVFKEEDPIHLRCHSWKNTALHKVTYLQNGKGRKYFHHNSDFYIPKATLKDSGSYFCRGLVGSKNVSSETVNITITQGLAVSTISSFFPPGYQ
In the case of B1, the “Fold WT” value is reported as 5.5 fold.
For B2, the “Fold WT” value was 2.31 fold.
In the case of B3, the “Fold WT” value is reported as 1.41 fold.
For B4, the “Fold WT” value was 12.8 fold.
With B5 the “Fold WT” value was 1.51 fold.
For B6, the “Fold WT” value was 384 fold.
For B7, the “Fold WT” value was 1.41 fold.
B8 was tested, and the “Fold WT” value was 2.56 fold.
B9 was tested, and the “Fold WT” value was 14.2 fold.
With B10 the “Fold WT” value was 1.77 fold.
For B11, the “Fold WT” value was 7.07 fold.
With B12 the “Fold WT” value was 6.69 fold.
B13 was tested, and the “Fold WT” value was 5.66 fold.
In the case of B14, the “Fold WT” value is reported as 22.4 fold.
B15 was tested, and the “Fold WT” value was 2.62 fold.
